B2: (C2)RAGE-GFP (domain or fragment)
chain: EPVPLEEVQLVVEPEGGAVAPGGTVTLTCEVPAQPSPQIHWMKDGVPLPLPPSPVLILPEIGPQDQGTYSCVATHSSHGPQESRAVSISIIEPGEEGPTAGSVGGS

Legend:
Assay in all cases: ELISA
Apt#31 = biological target: Apt#31
Apt#48 = biological target: Apt#48
[1] = biological target: Peptide aptamer PA #27 (anti-C1 domain), purified, in the D26A, K57E Thioredoxin scaffold (E. coli, UniProt P0AA25 = thioredoxin)
[2] = biological target: Peptide aptamer PA #44 (anti-V domain), purified, in the D26A, K57E Thioredoxin scaffold (E. coli, UniProt P0AA25 = thioredoxin)
[3] = biological target: Peptide aptamer PA #71 (anti-C2 domain), purified, in the D26A, K57E Thioredoxin scaffold (E. coli, UniProt P0AA25 = thioredoxin)
(C2)RAGE-GFP = biological target: B2

B1: (VC1)RAGE-GFP (domain or fragment)
chain: AQNITARIGEPLVLKCKGAPKKPPQRLEWKLNTGRTEAWKVLSPQGGGPWDSVARVLPNGSLFLPAVGIQDEGIFRCQAMNRNGKETKSNYRVRVYQIPGKPEIVDSASELTAGVPNKVGTCVSEGSYPAGTLSWHLDGKPLVPNEKGVSVKEQTRRHPETGLFTLQSELMVTPARGGDPRPTFSCSFSPGLPRHRALRTAPIQPRVWEPVPLEEVQLVVEPEG
B1 was tested, and the Kd (Apt#31) was 42 nM, the Kd (Apt#48) was 152 nM and the Kd [1] was 32 nM. It also gave a Kd [2] of 164 nM.

In the case of B2, the Kd [3] is reported as 14500 nM.

B3: Peptide aptamer PA #103 (anti-C2 domain), purified, in the D26A, K57E Thioredoxin scaffold (designed binder)
chain: SDKIIHLTDDSFDTDVLKADGAILVAFWAEWIQLRVRMKLVKMIAPILDEIADEYQGKLTVAELNIDQNPGTAPKYGIRGIPTLLLFKNGEVAATKVGALSKGQLKEFLDANLA
B3 showed a Kd ((C2)RAGE-GFP) of 1340 nM.
